Test results from patent US20190106460A1 (published 2019).
Starred links: 1 amine or outer side, 2 acyl side, 3 side chain; linkers in the order of their positions; H or OH if unused. Non-standard residues stand in square brackets, D forms with d. No end group written: not given here. *: point of attachment. Benzenesulfonyl(4-OMe) = COc1ccc(S(=O)(=O)*)cc1; E(Me) = COC(=O)CC[C@H](N[*:1])C(=O)[*:2]; Phe(3-F) = N[C@@H](Cc1cccc(F)c1)C(=O)O; Tos = Cc1ccc(S(=O)(=O)*)cc1

Legend:
Fbw7 = Fbw7 (UniProt Q969H0 263-707, limits assumed); experiment: cell-based or functional assay
Chain of Fbw7 (Q969H0 263-707 limits assumed): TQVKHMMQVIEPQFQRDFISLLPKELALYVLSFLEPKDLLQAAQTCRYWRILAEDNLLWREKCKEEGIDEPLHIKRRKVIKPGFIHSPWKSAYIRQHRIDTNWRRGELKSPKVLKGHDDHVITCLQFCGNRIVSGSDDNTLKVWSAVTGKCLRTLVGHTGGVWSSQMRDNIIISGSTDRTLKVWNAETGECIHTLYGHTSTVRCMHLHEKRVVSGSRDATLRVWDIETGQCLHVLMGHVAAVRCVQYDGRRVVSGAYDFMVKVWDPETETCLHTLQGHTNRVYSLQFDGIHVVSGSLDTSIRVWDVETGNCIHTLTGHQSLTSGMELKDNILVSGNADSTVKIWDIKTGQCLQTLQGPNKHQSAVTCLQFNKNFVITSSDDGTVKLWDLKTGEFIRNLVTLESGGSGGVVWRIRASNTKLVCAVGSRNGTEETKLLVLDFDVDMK

Skp2 = Skp2 (UniProt Q13309 1-424, limits assumed); experiment: cell-based or functional assay
Chain of Skp2 (Q13309 whole entry): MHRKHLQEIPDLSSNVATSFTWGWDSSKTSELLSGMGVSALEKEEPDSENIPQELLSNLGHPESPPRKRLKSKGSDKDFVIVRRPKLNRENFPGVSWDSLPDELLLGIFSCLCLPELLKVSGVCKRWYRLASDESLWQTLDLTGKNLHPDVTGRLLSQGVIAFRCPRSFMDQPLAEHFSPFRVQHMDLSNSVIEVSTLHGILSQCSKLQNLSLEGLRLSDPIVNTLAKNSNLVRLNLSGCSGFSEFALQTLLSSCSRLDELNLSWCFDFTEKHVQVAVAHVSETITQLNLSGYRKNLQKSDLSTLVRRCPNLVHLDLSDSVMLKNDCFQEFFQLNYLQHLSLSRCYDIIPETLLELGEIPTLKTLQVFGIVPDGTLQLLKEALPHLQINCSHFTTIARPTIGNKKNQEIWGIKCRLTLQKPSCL

[1] = target: T1, HisβTrCP/Skp1 and HisβTrCP/GSTSkp1 (immobilised on NTA Biacore chip) (UniProt Q9Y297 175-605; P63208 1-163); experiment: SPR (Biacore T200), single cycle run up to 1e-6 M, steady-state fit of the run shown; Rmax 3.459 RU, Chi² 0.00452 RU² [C]
T1 construct: SPR: KD values from both surfaces (with or without the GST moiety) were averaged to give the apparent KD; also called βTrCP surfaces
T1 sequence (Q9Y297 175-605, chain 1 of 2): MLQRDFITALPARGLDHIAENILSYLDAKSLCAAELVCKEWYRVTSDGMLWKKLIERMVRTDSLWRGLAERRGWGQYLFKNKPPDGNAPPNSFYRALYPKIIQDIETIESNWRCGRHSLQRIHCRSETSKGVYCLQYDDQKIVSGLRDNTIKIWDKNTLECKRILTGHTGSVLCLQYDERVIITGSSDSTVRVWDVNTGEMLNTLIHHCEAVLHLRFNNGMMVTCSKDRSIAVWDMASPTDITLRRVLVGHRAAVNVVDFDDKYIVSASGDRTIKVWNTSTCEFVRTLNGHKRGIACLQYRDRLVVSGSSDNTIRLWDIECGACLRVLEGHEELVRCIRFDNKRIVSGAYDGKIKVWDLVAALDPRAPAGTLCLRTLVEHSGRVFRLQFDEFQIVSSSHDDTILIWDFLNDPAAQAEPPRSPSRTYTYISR
T1 sequence (P63208 whole entry, chain 2 of 2): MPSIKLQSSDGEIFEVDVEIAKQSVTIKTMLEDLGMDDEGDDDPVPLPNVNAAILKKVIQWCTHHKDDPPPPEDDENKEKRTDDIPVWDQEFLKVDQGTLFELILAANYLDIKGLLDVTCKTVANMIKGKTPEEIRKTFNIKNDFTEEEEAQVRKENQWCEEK
Source text: (§1) As βTrCP was His tagged, an NTA sensor chip was used. This sensor chip has a dextran surface matrix with immobilized nitrilotriacetic acid (NTA) which provides a means of capturing polyHis-tagged proteins through Nickel chelation. It was hoped that addition of Ni⁺ would orient the protein in a specific (and hopefully active) manner as it is covalently immobilised via amine coupling. Addition of EDC:NHS (N-ethyl-N′-(3-[…])-carbodiimide:N-hydroxysuccinimide) converts carboxyl groups on the dextran sensor chip surface to succinamide esters which readily form covalent bonds with primary amines. Each chip contains four flow cells (each a separate surface) which means that compounds/peptides can be passed over different forms of βTrCP and a reference surface simultaneously. If binding to βTrCP is occurring, responses should be the same (accounting for differences in density of surface etc) on each surface.
(§2) Small molecule/peptide samples to be assayed for binding to βTrCP surfaces, were provided as 10 mM stocks in 100% DMSO. All samples were tested in running buffer composed of 10 mM HEPES pH 7.4, 150 mM NaCl, 50 μM EDTA, 0.005% p20, and 1% DMSO. Serial dilutions were made using running buffer. […] KD values calculated from binding curves from both surfaces (with or without the GST moiety) were averaged to produce apparent KD's for each sample tested.

[2] = target: T2, βTrCP (tag cleaved and complexed with Skp1) (UniProt Q9Y297 175-605; P63208 1-163); experiment: FP competition vs fluorescein-IκB peptide
T2 construct: Protein of the FP assay (0.035 µM); also called Beta Transducin repeat-containing protein; βTrCP/Skp1

[3] = target: T1, HisβTrCP/Skp1 and HisβTrCP/GSTSkp1 …; experiment: SPR, Biacore T200, βTrCP/Skp1 immobilised
Source text: as §1
Small molecule/peptide samples to be assayed for binding to βTrCP surfaces, were provided as 10 mM stocks in 100% DMSO. All samples were tested in running buffer composed of 10 mM HEPES pH 7.4, 150 mM NaCl, 50 μM EDTA, 0.005% p20, and 1% DMSO. Serial dilutions were made using running buffer. Samples were tested over varying concentrations up to a maximum of 100 μM. Two methods of measuring the SPR response were employed: single cycle kinetics which measures the response across different concentrations of sample within a single cycle (no regeneration of surface) and a method that measures the response at a given concentration in each cycle and includes a regeneration wash after each sample injection. The regeneration solution used was the same as running buffer, but included 500 mM NaCl. Data was fitted using Biacore T200 evaluation software. KD values calculated from binding curves from both surfaces (with or without the GST moiety) were averaged to produce apparent KD's for each sample tested.

[4] = target: T2, βTrCP (tag cleaved and complexed with …); experiment: FP competition vs fluorescein-IκB peptide; remark: listed apart in the source
[5] = target: T1, HisβTrCP/Skp1 and HisβTrCP/GSTSkp1 …; experiment: SPR (Biacore T200), single cycle run up to 1e-6 M, steady-state fit of the run shown; Rmax 1.318 RU, Chi² 0.00773 RU² [D]
Source text: as §1, §2

[6] = target: T1, HisβTrCP/Skp1 and HisβTrCP/GSTSkp1 …; experiment: SPR (Biacore T200), single cycle run up to 1e-6 M, steady-state fit of the run shown; Rmax 2.156 RU, Chi² 0.00730 RU² [E]
Source text: as §1, §2

[7] = target: T3, βTrCP (tag cleaved and complexed with Skp1) (UniProt Q9Y297 175-605; P63208 1-163); experiment: FP competition, 10 nM fluorescein-IκB peptide on βTrCP/Skp1
T3 construct: Protein of the fluorescence polarisation assay, 0.035 µM; also called Beta Transducin repeat-containing protein; βTrCP/Skp1
Description: Binding of the compounds to βTrCP was assessed using a fluorescence polarisation (FP) binding assay. The FP assay is an in vitro binding assay using a fluorescein-tagged IkB peptide at 10 nM to mimic substrate binding to βTrCP, and was performed as described above.

Row | Binder | % Inhibition Fbw7 @ 10 µM (Fbw7) [%] | % Inhibition Fbw7 @ (100 µM) (Fbw7) [%] | % Inhibition Skp2 @ 10 µM (Skp2) [%] | % Inhibition Skp2 @ (100 µM) (Skp2) [%] | Kd [1] [nM] | IC50 [2] [nM] | Kd [3] [nM] | IC50 [4] [nM] | Kd [5] [nM] | Kd [6] [nM] | IC50 [7] [nM]
1 | {Benzenesulfonyl(4-OMe)}-[dD]EG[Phe(3-F)]WE-NH2 (SMILES COc1ccc(S(=O)(=O)N[C@H](CC(=O)O)C(=O)N[C@@H](CCC(=O)O)C(=O)NCC(=O)N[C@@H](Cc2cccc(F)c2)C(=O)N[C@@H](Cc2c[nH]c3ccccc23)C(=O)N[C@@H](CCC(=O)O)C(N)=O)cc1, also called UBP022) [4-(MeO)-PhSO2-dEGF(3F)WE-NH2] | 0 | 18 | 7 | 12 | 49.8 | 17 | 48 | 17 |  |  | 
2 | Tos-DEG[Phe(3-F)]WE-NH2 (SMILES Cc1ccc(S(=O)(=O)N[C@@H](CC(=O)O)C(=O)N[C@@H](CCC(=O)O)C(=O)NCC(=O)N[C@@H](Cc2cccc(F)c2)C(=O)N[C@@H](Cc2c[nH]c3ccccc23)C(=O)N[C@@H](CCC(=O)O)C(N)=O)cc1, also called UBP024) [Ts-DEGF(3F)WE-NH2] | 0 | 8 | 0 | 7 |  | 18 | 19 | 18 | 40 |  | 
3 | Tos-[dD]EG[Phe(3-F)]W[E(Me)]-NH2 (also called UBP032) [Ts-dEGF(3F)WE(Me)-NH2] | 4 | 10 | 0 | 0 |  | 22 | 170 | 22 |  | 108 | 
4 | DEGFFE-NH2 [DEGFFE-NH2] |  |  |  |  |  |  |  |  |  |  | 43600
